Data taken from article PMC8136874, “The entry reaction of the plant shikimate pathway is subjected to highly complex metabolite-mediated regulation” (The Plant Cell, 2021).

Tests used:
C=C(OP(=O)(O)O)C(=O)O = assay: purified protein, by the assay type; conditions: other: various concentrations of the substrate; means ± SEM, n = 3; pH 7.4
[1] = system: O=C[C@H](O)[C@H](O)COP(=O)(O)O; assay: DHS enzymatic activity assay with recombinant AthDHS3; format: biochemical, Arabidopsis thaliana; conditions: other: various concentrations of the substrate; means ± SEM, n = 3; pH 7.4
Description: Unless otherwise noted, DHS enzymatic activity was monitored as previously described ([Liu et al., 2008]), with several optimizations for high-throughput assays with eight-strip PCR tubes and a thermal cycler. The enzyme solution (7.7 µL) containing 50 mM HEPES (pH 7.4) was preincubated with an effector molecule(s) at room temperature for 10 min. For assays using recombinant protein and enzyme fraction isolated from plant leaves, 0.01–0.05 µg and approximately 50 µg of proteins were used, respectively. After adding 0.5 µL of 0.1 M DTT, the samples were further incubated at room temperature for 15 min. […] The enzyme reaction was started by adding 6.8 µL of the substrate solution, then incubated at 37°C for 20 min, and terminated by adding 30 µL of 0.6 M trichloroacetic acid. After brief centrifugation, 5 µL of 200 mM NaIO4 (sodium meta-periodate) in 9 N H3PO4 was added to oxidize the enzymatic product and incubate at 25°C for 20 min. To stop the oxidation reaction, 20 µL of 0.75 M NaAsO2 (sodium arsenite), which was dissolved in 0.5 M Na2SO4 and 0.05 M H2SO4, was immediately mixed. After 5 min of incubation at room temperature, one-third of the sample solution was transferred to a new tube to be mixed with 50 µL of 40 mM thiobarbituric acid and incubated at 99°C for 15 min in a thermal cycler. Developed pink chromophore was extracted by putting the final solutions with 600 µL of cyclohexanone in eight-strip solvent-resistant plastic tubes, mixing vigorously and centrifuging them at 4,500 × g for 3 min to separate water- and cyclohexanone-based layers. The absorbance of the pink supernatant was read at 549 nm with the microplate reader (Infinite 200 PRO, TECAN, Männedorf, Switzerland) to calculate DAHP production with the molar extinction coefficient at 549 nm (ε = 549 nm) of 4.5 × 10^4/M/cm. […]
For determination of kinetic parameters, the data of enzymatic activities measured in the presence of various concentration of substrates were calculated with the Michaelis–Menten equation in Graphpad Prism 6 (GraphPad Software, San Diego, CA, USA).

Chain of AthDHS3 (Arabidopsis thaliana) (chain, as listed by the source): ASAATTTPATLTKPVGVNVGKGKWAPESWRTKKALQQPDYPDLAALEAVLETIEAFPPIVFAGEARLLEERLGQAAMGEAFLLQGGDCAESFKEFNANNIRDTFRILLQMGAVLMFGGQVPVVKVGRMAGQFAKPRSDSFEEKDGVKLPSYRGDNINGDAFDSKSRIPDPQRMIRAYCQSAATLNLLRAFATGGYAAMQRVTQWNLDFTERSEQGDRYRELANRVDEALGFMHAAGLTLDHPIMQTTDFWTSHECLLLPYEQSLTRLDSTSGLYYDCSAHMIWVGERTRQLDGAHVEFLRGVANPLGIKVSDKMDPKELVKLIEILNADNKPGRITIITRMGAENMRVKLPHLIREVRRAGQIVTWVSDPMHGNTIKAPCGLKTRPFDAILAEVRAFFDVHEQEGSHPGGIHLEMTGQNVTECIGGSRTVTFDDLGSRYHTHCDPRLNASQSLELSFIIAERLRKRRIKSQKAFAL

## AthDHS3 (Arabidopsis thaliana)
C=C(OP(=O)(O)O)C(=O)O
  Km: 706 ± 124 µM
  kcat: 8.42 s⁻¹
  kcat/Km: 12400 M⁻¹ s⁻¹
[1]
  Km: 1550 ± 276 µM
  kcat: 9.13 ± 0.28 s⁻¹
  kcat/Km: 6350 ± 160 M⁻¹ s⁻¹
